{"source": "patent US20050130920A1", "about": "(published 2005)", "binders": {"B1": {"name": "tyrosinase 207-216, FLPWHRLFLL (candidate tyrosinase housekeeping epitope) (peptide)", "peptide": "FLPWHRLFLL", "notes": "Synthetic 10-mer added to T2 cells at 100, 10, 1 and 0.1 ug/ml"}}, "target": "T1, HLA-A2.1 on T2 cells (empty or unstable surface MHC class I, with added beta-2 microglobulin) (human)", "T1 construct": "it is treated here as the same molecule; also called HLA-A*0201", "assay": "T2 cell HLA-A2.1 stabilisation, W6/32 staining, flow cytometry", "method": "T2 cells, which express empty or unstable MHC molecules on their surfacer were washed twice and suspended at 5×10⁶ cells/ml in serum-free complete Iscove's modified Dulbecco's medium (IMDM). B2 microglobulin (Sigma, St. Louis, Mo.) was added at 5 μg/ml and the cells distributed to a 96-well U-bottom plate at 5×10⁵ cells/well. Peptides were added at 100, 10, 1 and 0.1 μg/ml. The plate was rocked gently for 2 minutes and then incubated for 4 hours in a 5% CO₂ incubator at 37° C. After the unbound peptide was removed by washing twice with IMDM, a saturating amount of monoclonal antibody W6/32 (Sigma) was added. After incubation for 30 minutes at 4° C., cells were washed with PBS supplemented with 1% heat-inactivated FCS, 0.1% (w:v) sodium azide, pH 7.4-7.6 (staining buffer), and incubated with fluorescein isothiocyanate (FITC)-conjugated goat F(ab′) antimouse-IgG (Sigma) for 30 min at 4° C. and washed four times as before. The cells were resuspended in staining buffer and fixed by adding a quarter volume of 2% paraformaldehyde.", "data": [{"binder": "B1", "values": [{"measurement": "binding result", "value": "binds"}]}]}
